Data: patent US20140072613A1, “Compositions and Methods for Treating Cutaneous Scarring” (priority 2012, published 2014)

Key:
Assay in all cases: biochemical
Assay type in all cases: biochemical
266 human kinases [1] = molecular target: 266 human kinases (Homo sapiens, UniProt Q9UIK4); settings: DAPK2(h); 100 μM
Summary of the method: (§1)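 Inhibition was judged from reduced transfer of labelled phosphate from ATP to a positively charged substrate, which was captured on a negatively charged membrane and quantified by scintillation counting against a 100% activity control.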

266 human kinases [2] = molecular target: 266 human kinases (Homo sapiens, UniProt P30530); settings: Axl(h); 100 μM
Summary of the method: as §1

266 human kinases [3] = molecular target: T1, 266 human kinases (Homo sapiens, UniProt Q96PF2); settings: TSSK2(h); 100 μM
T1 sequence (Q96PF2 1-358): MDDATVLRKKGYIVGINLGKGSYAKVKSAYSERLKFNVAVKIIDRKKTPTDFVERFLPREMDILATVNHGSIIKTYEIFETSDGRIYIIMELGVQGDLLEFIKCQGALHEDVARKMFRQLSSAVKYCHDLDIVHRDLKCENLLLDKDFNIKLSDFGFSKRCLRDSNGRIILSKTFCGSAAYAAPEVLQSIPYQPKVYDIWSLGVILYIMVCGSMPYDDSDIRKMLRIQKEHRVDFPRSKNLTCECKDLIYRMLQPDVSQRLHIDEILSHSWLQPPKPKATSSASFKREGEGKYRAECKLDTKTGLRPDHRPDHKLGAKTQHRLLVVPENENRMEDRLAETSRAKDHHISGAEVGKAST
Summary of the method: as §1

266 human kinases [4] = molecular target: 266 human kinases (Homo sapiens, UniProt O43293); settings: ZIPK(h); 100 μM
Summary of the method: as §1

266 human kinases [5] = molecular target: 266 human kinases (Homo sapiens, UniProt P43405); settings: Syk(h); 100 μM
Summary of the method: as §1

266 human kinases [6] = molecular target: T2, 266 human kinases (Homo sapiens, UniProt Q15139); settings: PKCμ(h); 100 μM
T2 sequence (Q15139 1-912): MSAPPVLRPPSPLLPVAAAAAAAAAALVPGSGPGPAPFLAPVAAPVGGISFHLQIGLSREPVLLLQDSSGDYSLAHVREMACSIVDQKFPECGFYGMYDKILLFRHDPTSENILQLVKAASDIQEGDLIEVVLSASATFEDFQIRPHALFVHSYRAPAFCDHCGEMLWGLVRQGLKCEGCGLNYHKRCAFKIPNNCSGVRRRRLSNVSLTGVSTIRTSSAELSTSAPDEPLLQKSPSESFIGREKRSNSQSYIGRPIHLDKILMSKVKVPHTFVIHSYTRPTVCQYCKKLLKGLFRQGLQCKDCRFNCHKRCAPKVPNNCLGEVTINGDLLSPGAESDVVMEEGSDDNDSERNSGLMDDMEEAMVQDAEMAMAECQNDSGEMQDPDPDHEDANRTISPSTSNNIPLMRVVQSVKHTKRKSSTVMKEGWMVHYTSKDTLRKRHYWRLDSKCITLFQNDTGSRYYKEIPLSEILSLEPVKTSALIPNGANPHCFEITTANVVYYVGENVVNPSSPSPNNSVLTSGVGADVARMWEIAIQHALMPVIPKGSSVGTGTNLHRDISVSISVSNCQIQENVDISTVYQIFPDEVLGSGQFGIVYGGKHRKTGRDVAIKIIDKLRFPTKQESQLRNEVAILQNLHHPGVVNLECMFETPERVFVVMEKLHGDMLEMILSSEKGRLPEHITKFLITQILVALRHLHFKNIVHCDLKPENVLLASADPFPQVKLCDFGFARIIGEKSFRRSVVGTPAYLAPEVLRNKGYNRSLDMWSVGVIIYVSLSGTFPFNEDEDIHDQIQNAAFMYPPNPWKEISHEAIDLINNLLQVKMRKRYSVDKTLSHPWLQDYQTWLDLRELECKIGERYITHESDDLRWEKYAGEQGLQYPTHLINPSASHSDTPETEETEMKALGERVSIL
Summary of the method: as §1

266 human kinases [7] = molecular target: 266 human kinases (Homo sapiens, UniProt Q13557); settings: CaMKIIδ(h); 100 μM
Summary of the method: as §1

266 human kinases [8] = molecular target: 266 human kinases (Homo sapiens, UniProt Q96GD4); settings: Aurora-B(h); 100 μM
Summary of the method: as §1

266 human kinases [9] = molecular target: 266 human kinases (Homo sapiens, UniProt Q07912); settings: ACK1(h); 100 μM
Summary of the method: as §1

266 human kinases [10] = molecular target: T3, 266 human kinases (Homo sapiens, UniProt Q8NG66); settings: NEK11(h); 100 μM
T3 sequence (Q8NG66 1-645): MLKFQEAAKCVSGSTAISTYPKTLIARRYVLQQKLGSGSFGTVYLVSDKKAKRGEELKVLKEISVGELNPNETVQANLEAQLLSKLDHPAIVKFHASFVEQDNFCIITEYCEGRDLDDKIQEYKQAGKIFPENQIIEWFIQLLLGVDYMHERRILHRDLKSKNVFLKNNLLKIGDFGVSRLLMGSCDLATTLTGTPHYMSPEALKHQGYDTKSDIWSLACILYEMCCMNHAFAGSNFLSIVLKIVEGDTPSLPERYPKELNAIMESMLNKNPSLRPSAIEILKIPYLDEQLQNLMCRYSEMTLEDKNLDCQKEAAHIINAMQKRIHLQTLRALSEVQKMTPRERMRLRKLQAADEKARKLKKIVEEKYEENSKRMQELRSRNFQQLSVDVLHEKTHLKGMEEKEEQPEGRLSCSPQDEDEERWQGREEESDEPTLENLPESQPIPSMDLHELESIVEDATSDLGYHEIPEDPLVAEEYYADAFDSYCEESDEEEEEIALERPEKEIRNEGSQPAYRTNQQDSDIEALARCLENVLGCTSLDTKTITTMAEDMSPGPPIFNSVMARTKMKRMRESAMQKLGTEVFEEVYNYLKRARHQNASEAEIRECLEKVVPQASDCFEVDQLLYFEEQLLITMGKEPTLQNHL
Summary of the method: as §1

266 human kinases [11] = molecular target: 266 human kinases (Homo sapiens, UniProt P51617); settings: IRAK1(h); 100 μM
Summary of the method: as §1

Sequence of 266 human kinases (Homo sapiens, UniProt O43293) (O43293 whole entry): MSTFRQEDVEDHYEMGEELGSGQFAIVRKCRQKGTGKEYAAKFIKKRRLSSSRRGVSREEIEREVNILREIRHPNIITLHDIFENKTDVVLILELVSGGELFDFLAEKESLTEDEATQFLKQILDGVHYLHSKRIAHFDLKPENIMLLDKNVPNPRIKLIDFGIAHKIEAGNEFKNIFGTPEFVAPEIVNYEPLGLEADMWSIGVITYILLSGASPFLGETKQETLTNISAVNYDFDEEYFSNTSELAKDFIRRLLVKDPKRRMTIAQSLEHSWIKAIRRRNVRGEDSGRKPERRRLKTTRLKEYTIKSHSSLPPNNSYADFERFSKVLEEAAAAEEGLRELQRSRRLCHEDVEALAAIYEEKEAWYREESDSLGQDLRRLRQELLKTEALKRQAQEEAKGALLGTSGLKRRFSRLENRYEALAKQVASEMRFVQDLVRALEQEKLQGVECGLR
Sequence of 266 human kinases (Homo sapiens, UniProt Q9UIK4) (Q9UIK4 whole entry): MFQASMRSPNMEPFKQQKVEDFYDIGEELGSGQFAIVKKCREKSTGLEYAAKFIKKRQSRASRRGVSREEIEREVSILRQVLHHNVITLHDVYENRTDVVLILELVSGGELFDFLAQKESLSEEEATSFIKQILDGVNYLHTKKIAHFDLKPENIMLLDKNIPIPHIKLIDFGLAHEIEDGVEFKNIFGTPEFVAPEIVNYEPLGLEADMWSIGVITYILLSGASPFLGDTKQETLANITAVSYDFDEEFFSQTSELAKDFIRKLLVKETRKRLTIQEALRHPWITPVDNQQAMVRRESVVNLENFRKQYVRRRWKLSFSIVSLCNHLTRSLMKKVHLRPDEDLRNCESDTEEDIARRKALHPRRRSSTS
Sequence of 266 human kinases (Homo sapiens, UniProt Q13557) (Q13557 whole entry): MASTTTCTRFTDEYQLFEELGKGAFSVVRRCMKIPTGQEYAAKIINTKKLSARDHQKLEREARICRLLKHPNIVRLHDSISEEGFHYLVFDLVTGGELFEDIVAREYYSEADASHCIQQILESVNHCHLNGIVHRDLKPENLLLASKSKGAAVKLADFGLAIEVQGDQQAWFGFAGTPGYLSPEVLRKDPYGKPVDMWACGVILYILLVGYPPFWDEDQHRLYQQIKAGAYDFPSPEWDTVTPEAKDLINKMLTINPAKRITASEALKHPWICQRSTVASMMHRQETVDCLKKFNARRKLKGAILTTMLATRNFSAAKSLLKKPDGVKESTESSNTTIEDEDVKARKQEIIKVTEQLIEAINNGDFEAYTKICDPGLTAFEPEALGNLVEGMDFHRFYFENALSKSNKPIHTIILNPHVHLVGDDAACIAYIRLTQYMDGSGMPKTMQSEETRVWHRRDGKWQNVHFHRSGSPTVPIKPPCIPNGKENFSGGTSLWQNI
Sequence of 266 human kinases (Homo sapiens, UniProt P51617) (P51617 whole entry): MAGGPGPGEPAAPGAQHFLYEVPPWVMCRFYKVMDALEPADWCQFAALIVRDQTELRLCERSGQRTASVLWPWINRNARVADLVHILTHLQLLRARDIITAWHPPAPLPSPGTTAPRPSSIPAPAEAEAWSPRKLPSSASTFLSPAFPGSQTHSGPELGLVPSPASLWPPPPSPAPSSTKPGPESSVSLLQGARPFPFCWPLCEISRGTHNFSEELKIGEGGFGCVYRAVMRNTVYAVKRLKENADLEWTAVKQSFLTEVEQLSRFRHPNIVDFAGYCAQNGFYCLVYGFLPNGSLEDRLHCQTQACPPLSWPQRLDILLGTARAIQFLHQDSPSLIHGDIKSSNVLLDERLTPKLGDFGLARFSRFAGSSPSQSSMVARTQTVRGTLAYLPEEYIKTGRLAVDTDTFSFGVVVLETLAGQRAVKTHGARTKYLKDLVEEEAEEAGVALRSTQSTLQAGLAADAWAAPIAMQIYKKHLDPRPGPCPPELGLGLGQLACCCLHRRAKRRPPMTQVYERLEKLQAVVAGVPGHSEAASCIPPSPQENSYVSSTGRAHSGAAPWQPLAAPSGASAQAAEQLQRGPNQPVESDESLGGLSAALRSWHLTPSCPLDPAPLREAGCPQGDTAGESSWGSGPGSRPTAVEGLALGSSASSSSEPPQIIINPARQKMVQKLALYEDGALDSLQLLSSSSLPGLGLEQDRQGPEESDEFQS
Sequence of 266 human kinases (Homo sapiens, UniProt Q96GD4) (Q96GD4 whole entry): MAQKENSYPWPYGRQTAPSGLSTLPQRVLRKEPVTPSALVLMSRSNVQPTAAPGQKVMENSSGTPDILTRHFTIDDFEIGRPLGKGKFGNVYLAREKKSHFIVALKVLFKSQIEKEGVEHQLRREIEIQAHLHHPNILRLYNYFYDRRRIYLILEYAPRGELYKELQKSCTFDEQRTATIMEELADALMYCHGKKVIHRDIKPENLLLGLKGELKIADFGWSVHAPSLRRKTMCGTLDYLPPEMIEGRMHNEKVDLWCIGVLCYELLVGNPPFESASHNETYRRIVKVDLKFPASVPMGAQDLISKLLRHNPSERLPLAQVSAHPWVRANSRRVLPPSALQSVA
Sequence of 266 human kinases (Homo sapiens, UniProt Q07912) (Q07912 whole entry): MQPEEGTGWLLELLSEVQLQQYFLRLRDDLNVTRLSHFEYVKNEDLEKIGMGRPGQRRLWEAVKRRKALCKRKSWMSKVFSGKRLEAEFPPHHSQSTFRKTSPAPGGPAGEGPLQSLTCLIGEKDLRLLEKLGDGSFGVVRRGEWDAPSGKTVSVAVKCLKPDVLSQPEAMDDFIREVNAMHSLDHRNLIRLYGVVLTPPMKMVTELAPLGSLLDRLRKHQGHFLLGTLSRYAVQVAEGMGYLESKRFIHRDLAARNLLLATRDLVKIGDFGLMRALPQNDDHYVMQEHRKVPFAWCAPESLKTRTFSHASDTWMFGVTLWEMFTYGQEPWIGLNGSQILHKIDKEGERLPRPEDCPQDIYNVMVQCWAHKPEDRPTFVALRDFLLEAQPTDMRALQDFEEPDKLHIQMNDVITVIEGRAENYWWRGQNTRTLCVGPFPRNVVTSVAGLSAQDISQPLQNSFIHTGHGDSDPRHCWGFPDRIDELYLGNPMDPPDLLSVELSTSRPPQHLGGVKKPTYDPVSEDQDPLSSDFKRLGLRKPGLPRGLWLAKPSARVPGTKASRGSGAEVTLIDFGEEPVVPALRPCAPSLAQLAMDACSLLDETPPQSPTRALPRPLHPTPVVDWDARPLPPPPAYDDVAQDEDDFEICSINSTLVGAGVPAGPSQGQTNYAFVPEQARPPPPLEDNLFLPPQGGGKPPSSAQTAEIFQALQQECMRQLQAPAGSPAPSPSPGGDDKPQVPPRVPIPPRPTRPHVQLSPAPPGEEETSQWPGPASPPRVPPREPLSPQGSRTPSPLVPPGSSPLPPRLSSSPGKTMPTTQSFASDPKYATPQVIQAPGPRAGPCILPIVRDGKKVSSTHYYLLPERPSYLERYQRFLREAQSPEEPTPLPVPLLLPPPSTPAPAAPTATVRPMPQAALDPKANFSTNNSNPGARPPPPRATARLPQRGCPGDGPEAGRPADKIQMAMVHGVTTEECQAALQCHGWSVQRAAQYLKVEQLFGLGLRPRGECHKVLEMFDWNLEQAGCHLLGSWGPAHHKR

With “HRRIKAWLKKIKALARQLGVAA (mammal) [MMI-0500]” the “% activity” value (266 human kinases [1]) was 3%, the “% activity” value (266 human kinases [2]) was 12% and the “% activity” value (266 human kinases [3]) was 92%. The “% activity” value (266 human kinases [4]) was 1%, the “% activity” value (266 human kinases [5]) was 5% and the “% activity” value (266 human kinases [6]) was 10%. The “% activity” value (266 human kinases [7]) was 1%, the “% activity” value (266 human kinases [8]) was 5% and the “% activity” value (266 human kinases [9]) was 64%. For the same sequence, the “% activity” value (266 human kinases [10]) was 2% and the “% activity” value (266 human kinases [11]) was 5%.

For “YARAAARQARAKALNRQLGVA (mammal) [MMI-0200]”, the “% activity” value (266 human kinases [1]) was 92%, the “% activity” value (266 human kinases [2]) was 99% and the “% activity” value (266 human kinases [3]) was 91%. The “% activity” value (266 human kinases [4]) was 67%, the “% activity” value (266 human kinases [5]) was 36% and the “% activity” value (266 human kinases [6]) was 73%. For the same sequence, the “% activity” value (266 human kinases [7]) was 2%, the “% activity” value (266 human kinases [8]) was 166% and the “% activity” value (266 human kinases [9]) was 97%. The “% activity” value (266 human kinases [10]) was 95% and the “% activity” value (266 human kinases [11]) was 101%.
